B1: OR4K15 (parent)
chain: GUUAACGGUCAUAGGCCAUGGAAACUAGGAGCACCAUUUCGCUGCCAGUGAAGAAAUGAACAAAGAAAAUCUGGGCCAGGCAGGCAUCAAAAGAAAUAGUCUUGCGCUCAACCAGAAAGUCUGUAAUCAUUUUAAGGGUA

Variants of: B1
Experiment: self-cleavage, relative activity (ratio to wild type); higher = more cleavage; in vitro, sequencing; the parent is a self-cleaving ribozyme

Row | Variant | self-cleavage
1 | GUUAACGGUCAUAGGCCAUGGAAACUAGGAGCACCAUUUCGCUGCCAGUGAAGAAAUGAACAAAGAAAAUCUGGGCCAGGCAGGCAUCUAAAGAAAUAGUCUUGCGCUCAACCAGAAAGUCAGUAAUCAUUUUAAGGGUA [A89U U122A] | 0.6
2 | GUUAACGGUCAUAGGCCAUGGAAACUAGGAGCACCAUUUCGCUGCCAGUGAAGAAAUGAACAAAGAAAAUCUGGGCCAGGCAGGCAUCAGAAGAAAUAGUCUUGCGCUCAAGCAGAAAGUCUGUAAUCAUUUUAAGGGUA [A90G C112G] | 0
3 | GUUAACGGUCAUAGGCCAUGGAAACUAGGAGCACCAUUUCGCUGCCAGUGAAGAAAUGAACAAAGAAAAUCUGGGCCAGGCAGGCAUCAGAAGAAAUAGUCUUGCCCUCAACCAGAAAGUCUGUAAUCAUUUUAAGGGUA [A90G G106C] | 0
4 | GUUAACGGUCAUAGGCCAUGGAAACUAGGAGCACCAUUUCGCUGCCAGUGAAGAAAUGAACAAAGAAAAUCUGGGCCAGGCAGGCAUCACAAGAAAUAGACUUGCGCUCAACCAGAAAGUCUGUAAUCAUUUUAAGGGUA [A90C U100A] | 0.92
5 | GUUAACGGUCAUAGGCCAUGGAAACUAGGAGCACCAUUUCGCUGCCAGUGAAGAAAUGAACAAAGAAAAUCUGGGCCAGGCAGGCAUCAGAAGAAAUAGUCUUGCGCUCAACCAGAAAGUCUGUAAUCAUUUUACGGGUA [A90G A135C] | 0.91
6 | GUUAACGGUCAUAGGCCAUGGAAACUAGGAGCACCAUUUCGCUGCCAGUGAAGAAAUGAACAAAGAAAAUCUGGGCCAGGCAGGCAUCAGAAGAAAUAGUCUUGCGCUCAACCAGAAAGUCUGUAAUCAUUUUAUGGGUA [A90G A135U] | 0.39
7 | GUUAACGGUCAUAGGCCAUGGAAACUAGGAGCACCAUUUCGCUGCCAGUGAAGAAAUGAACAAAGAAAAUCUGGGCCAGGCAGGCAUCAGAAGAGAUAGUCUUGCGCUCAACCAGAAAGUCUGUAAUCAUUUUAAGGGUA [A90G A95G] | 2.02
8 | GUUAACGGUCAUAGGCCAUGGAAACUAGGAGCACCAUUUCGCUGCCAGUGAAGAAAUGAACAAAGAAAAUCUGGGCCAGGCAGGCAUCAGAAGAAAUAGUCUUGCGCUCAACCUGAAAGUCUGUAAUCAUUUUAAGGGUA [A90G A114U] | 0.02
9 | GUUAACGGUCAUAGGCCAUGGAAACUAGGAGCACCAUUUCGCUGCCAGUGAAGAAAUGAACAAAGAAAAUCUGGGCCAGGCAGGCAUCUAAAGAAAUAGUCUUGCGCUCAACCAGAAAGUCUGUAAUCAUCUUAAGGGUA [A89U U131C] | 1.47
10 | GUUAACGGUCAUAGGCCAUGGAAACUAGGAGCACCAUUUCGCUGCCAGUGAAGAAAUGAACAAAGAAAAUCUGGGCCAGGCAGGCAUCAGAAGAAAUAGUCUUGUGCUCAACCAGAAAGUCUGUAAUCAUUUUAAGGGUA [A90G C105U] | 0.04
11 | GUUAACGGUCAUAGGCCAUGGAAACUAGGAGCACCAUUUCGCUGCCAGUGAAGAAAUGAACAAAGAAAAUCUGGGCCAGGCAGGCAUCUAAAGAAAUAGUCUUGCGCACAACCAGAAAGUCUGUAAUCAUUUUAAGGGUA [A89U U108A] | 0.02
12 | GUUAACGGUCAUAGGCCAUGGAAACUAGGAGCACCAUUUCGCUGCCAGUGAAGAAAUGAACAAAGAAAAUCUGGGCCAGGCAGGCAUCUAAAGAAAUAGUCUUGCGCUCAACCAUAAAGUCUGUAAUCAUUUUAAGGGUA [A89U G115U] | 0.56
13 | GUUAACGGUCAUAGGCCAUGGAAACUAGGAGCACCAUUUCGCUGCCAGUGAAGAAAUGAACAAAGAAAAUCUGGGCCAGGCAGGCAUCAGAAGAAAUAGUCUUGCGCUCAACCAGAAAGUCUGUUAUCAUUUUAAGGGUA [A90G A125U] | 1.7
14 | GUUAACGGUCAUAGGCCAUGGAAACUAGGAGCACCAUUUCGCUGCCAGUGAAGAAAUGAACAAAGAAAAUCUGGGCCAGGCAGGCAUCAGAAGAAAUAGUUUUGCGCUCAACCAGAAAGUCUGUAAUCAUUUUAAGGGUA [A90G C101U] | 0.21
15 | GUUAACGGUCAUAGGCCAUGGAAACUAGGAGCACCAUUUCGCUGCCAGUGAAGAAAUGAACAAAGAAAAUCUGGGCCAGGCAGGCAUCAGAAGAAAUAGUCUAGCGCUCAACCAGAAAGUCUGUAAUCAUUUUAAGGGUA [A90G U103A] | 0.26
16 | GUUAACGGUCAUAGGCCAUGGAAACUAGGAGCACCAUUUCGCUGCCAGUGAAGAAAUGAACAAAGAAAAUCUGGGCCAGGCAGGCAUCAGAAGAAAUGGUCUUGCGCUCAACCAGAAAGUCUGUAAUCAUUUUAAGGGUA [A90G A98G] | 0.22
17 | GUUAACGGUCAUAGGCCAUGGAAACUAGGAGCACCAUUUCGCUGCCAGUGAAGAAAUGAACAAAGAAAAUCUGGGCCAGGCAGGCAUCAGAAGAAAUUGUCUUGCGCUCAACCAGAAAGUCUGUAAUCAUUUUAAGGGUA [A90G A98U] | 1.62
18 | GUUAACGGUCAUAGGCCAUGGAAACUAGGAGCACCAUUUCGCUGCCAGUGAAGAAAUGAACAAAGAAAAUCUGGGCCAGGCAGGCAUCAGAAGAAAUAGUCUUACGCUCAACCAGAAAGUCUGUAAUCAUUUUAAGGGUA [A90G G104A] | 0.02
19 | GUUAACGGUCAUAGGCCAUGGAAACUAGGAGCACCAUUUCGCUGCCAGUGAAGAAAUGAACAAAGAAAAUCUGGGCCAGGCAGGCAUCUAAAGAAAUAGUCUUGCGCUCAACCAGAAAAUCUGUAAUCAUUUUAAGGGUA [A89U G119A] | 2.37
20 | GUUAACGGUCAUAGGCCAUGGAAACUAGGAGCACCAUUUCGCUGCCAGUGAAGAAAUGAACAAAGAAAAUCUGGGCCAGGCAGGCAUCAGAAGAAAUAGUCUUGCGCUCAACCAGAAAAUCUGUAAUCAUUUUAAGGGUA [A90G G119A] | 0.36
21 | GUUAACGGUCAUAGGCCAUGGAAACUAGGAGCACCAUUUCGCUGCCAGUGAAGAAAUGAACAAAGAAAAUCUGGGCCAGGCAGGCAUCUAAAGAAAUAGUCUUGCGCUCAACCAGAAAGCCUGUAAUCAUUUUAAGGGUA [A89U U120C] | 0.5

Row | Variant | self-cleavage
22 | GUUAACGGUCAUAGGCCAUGGAAACUAGGAGCACCAUUUCGCUGCCAGUGAAGAAAUGAACAAAGAAAAUCUGGGCCAGGCAGGCAUCUAAAGAAAUAGUCUUGCGCUCAACCAGAAAGUCUGCAAUCAUUUUAAGGGUA [A89U U124C] | 1.38
23 | GUUAACGGUCAUAGGCCAUGGAAACUAGGAGCACCAUUUCGCUGCCAGUGAAGAAAUGAACAAAGAAAAUCUGGGCCAGGCAGGCAUCAGAAGAAAUAGUCUUGCGCUCAGCCAGAAAGUCUGUAAUCAUUUUAAGGGUA [A90G A111G] | 0.02
24 | GUUAACGGUCAUAGGCCAUGGAAACUAGGAGCACCAUUUCGCUGCCAGUGAAGAAAUGAACAAAGAAAAUCUGGGCCAGGCAGGCAUCAGAAGAAAUAGUCUUGCGCUCUACCAGAAAGUCUGUAAUCAUUUUAAGGGUA [A90G A110U] | 0.94
25 | GUUAACGGUCAUAGGCCAUGGAAACUAGGAGCACCAUUUCGCUGCCAGUGAAGAAAUGAACAAAGAAAAUCUGGGCCAGGCAGGCAUCAGAAGAAAUAGUCUUGCGCCCAACCAGAAAGUCUGUAAUCAUUUUAAGGGUA [A90G U108C] | 0.02
26 | GUUAACGGUCAUAGGCCAUGGAAACUAGGAGCACCAUUUCGCUGCCAGUGAAGAAAUGAACAAAGAAAAUCUGGGCCAGGCAGGCAUCAGAAGAAAUAGUCUUGCGCACAACCAGAAAGUCUGUAAUCAUUUUAAGGGUA [A90G U108A] | 0.02
27 | GUUAACGGUCAUAGGCCAUGGAAACUAGGAGCACCAUUUCGCUGCCAGUGAAGAAAUGAACAAAGAAAAUCUGGGCCAGGCAGGCAUCAGAAGAAAUAGUCUUGCGCUCAACCAGGAAGUCUGUAAUCAUUUUAAGGGUA [A90G A116G] | 0.8
28 | GUUAACGGUCAUAGGCCAUGGAAACUAGGAGCACCAUUUCGCUGCCAGUGAAGAAAUGAACAAAGAAAAUCUGGGCCAGGCAGGCAUCAGAAGAAAUAGUCUUGCGCUCAACCAGAAAGUCUGUAAUCAUUUUAAGCGUA [A90G G137C] | 1.19
29 | GUUAACGGUCAUAGGCCAUGGAAACUAGGAGCACCAUUUCGCUGCCAGUGAAGAAAUGAACAAAGAAAAUCUGGGCCAGGCAGGCAUCAGAAGAAAUAGUCUUGCGCUCAACCAGAAAGUCUGUAGUCAUUUUAAGGGUA [A90G A126G] | 0.95
30 | GUUAACGGUCAUAGGCCAUGGAAACUAGGAGCACCAUUUCGCUGCCAGUGAAGAAAUGAACAAAGAAAAUCUGGGCCAGGCAGGCAUCACAAGAAAUAGUCUUGCGCUCAACCAGAAGGUCUGUAAUCAUUUUAAGGGUA [A90C A118G] | 1.04
31 | GUUAACGGUCAUAGGCCAUGGAAACUAGGAGCACCAUUUCGCUGCCAGUGAAGAAAUGAACAAAGAAAAUCUGGGCCAGGCAGGCAUCAGAAGAAAUAGUCUUGCGCUCAACCAGAAUGUCUGUAAUCAUUUUAAGGGUA [A90G A118U] | 0.45
32 | GUUAACGGUCAUAGGCCAUGGAAACUAGGAGCACCAUUUCGCUGCCAGUGAAGAAAUGAACAAAGAAAAUCUGGGCCAGGCAGGCAUCAGAAGAAAUAGUCUUGCGCUCAACCAGAACGUCUGUAAUCAUUUUAAGGGUA [A90G A118C] | 0.82
33 | GUUAACGGUCAUAGGCCAUGGAAACUAGGAGCACCAUUUCGCUGCCAGUGAAGAAAUGAACAAAGAAAAUCUGGGCCAGGCAGGCAUCAGAAGAAAUAGUCUUGCGCUCAACCAGAAGGUCUGUAAUCAUUUUAAGGGUA [A90G A118G] | 0.47
34 | GUUAACGGUCAUAGGCCAUGGAAACUAGGAGCACCAUUUCGCUGCCAGUGAAGAAAUGAACAAAGAAAAUCUGGGCCAGGCAGGCAUCAGAGGAAAUAGUCUUGCGCUCAACCAGAAAGUCUGUAAUCAUUUUAAGGGUA [A90G A92G] | 1.01
35 | GUUAACGGUCAUAGGCCAUGGAAACUAGGAGCACCAUUUCGCUGCCAGUGAAGAAAUGAACAAAGAAAAUCUGGGCCAGGCAGGCAUCUAAAGAAAUAGUCCUGCGCUCAACCAGAAAGUCUGUAAUCAUUUUAAGGGUA [A89U U102C] | 1.9
36 | GUUAACGGUCAUAGGCCAUGGAAACUAGGAGCACCAUUUCGCUGCCAGUGAAGAAAUGAACAAAGAAAAUCUGGGCCAGGCAGGCAUCAGAAGAAAUAGUCUUGCGCUCAACCAGAAAGUCUGUAAUCGUUUUAAGGGUA [A90G A129G] | 0.22
37 | GUUAACGGUCAUAGGCCAUGGAAACUAGGAGCACCAUUUCGCUGCCAGUGAAGAAAUGAACAAAGAAAAUCUGGGCCAGGCAGGCAUCAGAAGAAAUAGUCUUGCGCUCAACCAGAAAGUCUGUAAUCUUUUUAAGGGUA [A90G A129U] | 0.35
38 | GUUAACGGUCAUAGGCCAUGGAAACUAGGAGCACCAUUUCGCUGCCAGUGAAGAAAUGAACAAAGAAAAUCUGGGCCAGGCAGGCAUCUAAAGAAAUAGUCUUCCGCUCAACCAGAAAGUCUGUAAUCAUUUUAAGGGUA [A89U G104C] | 0.01
39 | GUUAACGGUCAUAGGCCAUGGAAACUAGGAGCACCAUUUCGCUGCCAGUGAAGAAAUGAACAAAGAAAAUCUGGGCCAGGCAGGCAUCUAAAGAAAUAGUCUUGCGCUCAACCAGAAAGUCUGUAAUCAUUCUAAGGGUA [A89U U132C] | 1.64
40 | GUUAACGGUCAUAGGCCAUGGAAACUAGGAGCACCAUUUCGCUGCCAGUGAAGAAAUGAACAAAGAAAAUCUGGGCCAGGCAGGCAUCUAAAGAAAUAGUCUUGCGCUCAACCAGAAAGUCUGUAAUCAUUAUAAGGGUA [A89U U132A] | 1.35
41 | GUUAACGGUCAUAGGCCAUGGAAACUAGGAGCACCAUUUCGCUGCCAGUGAAGAAAUGAACAAAGAAAAUCUGGGCCAGGCAGGCAUCAGAAGAAAUAGUCUUGCGAUCAACCAGAAAGUCUGUAAUCAUUUUAAGGGUA [A90G C107A] | 0.02

Source: the RNAGym collection of RNA variant scans (doi:10.7554/elife.90254)
